Assay results published in the supplement of paper PMC7125110.
± gives the standard error. For some of these results: This sample holds only a part of the variants without activity.

B1: glmS ribozyme (parent)
chain: AUAAAAGCGCCAGAACUACAGAAAUGUAGUUGACGAGGAGGAGGUUUAUCGAAUUUUCGGCGGAUGCCUCCAAA

Tests used:
Details in all cases: with glucosamine-6-phosphate
glucosamine-6-phosphate [1] = variants of: B1; test: kcat; higher = faster cleavage; RNA array
Summary of the method: (§1)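 Using a hybridised Cy3 probe at 37 °C, barcoded ribozyme variants transcribed in situ by E. coli RNA polymerase on sequenced MiSeq chips were monitored across tiles imaged over ~14 h. The flow contained glucosamine-6-phosphate from 40 μM to 10 mM in HEPES/KCl/Mg(OAc)2 buffer. Signals were normalised to baseline and to non-cleaving reference variants before per-tile medians were fit to one- or two-exponential decays to yield kobs. Weighted Michaelis–Menten fits across concentrations gave kcat and KM.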

glucosamine-6-phosphate [2] = variants of: B1; test: KM; higher = weaker cofactor use; RNA array
Summary of the method: as §1

glucosamine-6-phosphate [3] = variants of: B1; test: self-cleavage kobs at 40 uM GlcN6P; higher = faster cleavage; RNA array
Summary of the method: as §1

glucosamine-6-phosphate [4] = variants of: B1; test: self-cleavage kobs at 160 uM GlcN6P; higher = faster cleavage; RNA array
Summary of the method: as §1

glucosamine-6-phosphate [5] = variants of: B1; test: self-cleavage kobs at 640 uM GlcN6P; higher = faster cleavage; RNA array
Summary of the method: as §1

glucosamine-6-phosphate [6] = variants of: B1; test: self-cleavage kobs at 2500 uM GlcN6P; higher = faster cleavage; RNA array
Summary of the method: as §1

glucosamine-6-phosphate [7] = variants of: B1; test: self-cleavage kobs at 10000 uM GlcN6P; higher = faster cleavage; RNA array
Summary of the method: as §1

Variant	kcat (glucosamine-6-phosphate [1]) [s⁻¹]	KM (glucosamine-6-phosphate [2]) [µM]	self-cleavage kobs at 40 uM GlcN6P (glucosamine-6-phosphate [3]) [s⁻¹]	self-cleavage kobs at 160 uM GlcN6P (glucosamine-6-phosphate [4]) [s⁻¹]	self-cleavage kobs at 640 uM GlcN6P (glucosamine-6-phosphate [5]) [s⁻¹]	self-cleavage kobs at 2500 uM GlcN6P (glucosamine-6-phosphate [6]) [s⁻¹]	self-cleavage kobs at 10000 uM GlcN6P (glucosamine-6-phosphate [7]) [s⁻¹]
U31A U55C	0.0168 ± 0.0039	3130 ± 990	0.000283 ± 4.3e-05	0.000647 ± 0.00012	0.00293 ± 0.00082	0.00826 ± 0.0023	0.0127 ± 0.0018
U30G U45A	0.0197 ± 0.0054	1680 ± 600	0.000528 ± 9.3e-05	0.00157 ± 0.00042	0.00474 ± 0.0013	0.0101 ± 0.0026	0.0239 ± 0.0066
U30G U45G	0.00151 ± 0.00041	2200 ± 950	3.05e-05 ± 1.4e-05	7.13e-05 ± 2.2e-05	0.000382 ± 6.4e-05	0.00102 ± 0.00015	0.00103 ± 0.00021
U30G G38U	< 1e-05	87.6 ± 41	–	–	–	–	–
U31C C68U	0.000617 ± 9.3e-05	1690 ± 450	3.14e-05 ± 9.7e-06	5.34e-05 ± 8.6e-06	0.000175 ± 1.2e-05	0.000321 ± 2.9e-05	0.000583 ± 4.8e-05
U31G C70G	0.000132 ± 1.8e-05	595 ± 260	–	5.51e-05 ± 2.2e-05	6.05e-05 ± 1.2e-05	0.000118 ± 3.1e-05	0.000126 ± 1.8e-05
U30G C70A	6.7e-05 ± 4.4e-06	410 ± 130	–	–	3.81e-05 ± 9.7e-06	6.45e-05 ± 9.7e-06	6.09e-05 ± 8.7e-06
U31G C71G	0.000461 ± 0.0001	408 ± 180	5.48e-05 ± 1.3e-05	0.000111 ± 2.7e-05	–	0.000329 ± 7.1e-05	0.000555 ± 9.7e-05
G32A G59U	1.15e-05 ± 1.2e-06	3350 ± 1300	–	–	–	–	–
G32A G59A	1.74e-05 ± 3.1e-06	–	–	< 1e-05	–	–	–
U31C G40C	0.000274 ± 4.9e-05	–	–	–	0.000125 ± 5e-05	0.000177 ± 4e-05	0.000287 ± 6.9e-05
U31C G40A	0.00072 ± 0.00018	1300 ± 550	–	6.18e-05 ± 1.5e-05	0.000297 ± 4.4e-05	0.000647 ± 0.00012	0.000532 ± 0.0001
U30G U56G	0.00526 ± 0.0018	–	0.000182 ± 3.7e-05	–	0.00189 ± 0.00062	0.00266 ± 0.00073	0.00705 ± 0.0016
U31A C70U	0.0129 ± 0.0056	–	0.000386 ± 5.3e-05	0.000843 ± 0.00019	0.00235 ± 0.00031	0.0115 ± 0.0032	0.0113 ± 0.0017
U31A C70G	0.000226 ± 2.5e-05	570 ± 170	–	6.6e-05 ± 1.6e-05	0.000116 ± 1.3e-05	0.000169 ± 2.4e-05	0.000235 ± 3.2e-05
U31G U54C	0.014 ± 0.0061	–	0.000233 ± 4e-05	0.000516 ± 0.00013	0.00289 ± 0.00053	0.00559 ± 0.00098	0.0136 ± 0.0038
U31C A33C	< 1e-05	5010 ± 1800	< 1e-05	< 1e-05	–	–	–
G32U A39U C67G	0.000203 ± 2.3e-05	4340 ± 1100	< 1e-05	–	–	7.96e-05 ± 1.7e-05	0.00014 ± 2e-05
U30G G41C	0.00013 ± 5.4e-06	2760 ± 240	–	–	–	6.27e-05 ± 1.2e-05	0.000101 ± 2.7e-05
U30G G41A	0.000293 ± 2.6e-05	881 ± 160	–	4.24e-05 ± 1.1e-05	0.000124 ± 2e-05	0.00025 ± 4.4e-05	0.000248 ± 4.4e-05
U31A G40U	0.00159 ± 0.00017	1080 ± 240	6.29e-05 ± 1.4e-05	–	0.000444 ± 0.00018	0.00109 ± 0.00024	0.00148 ± 0.00022
U31G C67G	0.000557 ± 2.6e-05	1760 ± 150	–	4.63e-05 ± 8.1e-06	0.00015 ± 1.7e-05	0.000303 ± 5.8e-05	0.00048 ± 4.6e-05
U31G A64G	0.0127 ± 0.0021	1620 ± 370	0.000372 ± 5.2e-05	0.000974 ± 0.00016	0.00368 ± 0.00071	0.00704 ± 0.0013	0.0116 ± 0.0017
U31G U45A A52G	0.000908 ± 0.00012	4890 ± 1500	–	–	–	0.000361 ± 0.00013	0.000604 ± 8.7e-05
U30G C71A	0.00126 ± 0.0004	1140 ± 560	7.85e-05 ± 1.2e-05	0.000138 ± 2.2e-05	0.000344 ± 6.7e-05	0.00096 ± 0.00014	0.00119 ± 0.00018
G32A G41U A52U	< 1e-05	1010 ± 120	< 1e-05	–	< 1e-05	–	–
G32C C70U	0.000154 ± 1.4e-05	2850 ± 800	–	–	3.89e-05 ± 1.1e-05	6.52e-05 ± 1e-05	0.000121 ± 7.5e-06
U31G A42U	5.2e-05 ± 1.3e-05	–	–	–	–	2.29e-05 ± 1.1e-05	4.27e-05 ± 1.1e-05
G32U A39U	0.000723 ± 0.00022	8400 ± 3500	–	3.38e-05 ± 1e-05	5.81e-05 ± 5.6e-06	0.000148 ± 1.2e-05	0.000411 ± 3.1e-05
